Data as given in patent publication US20060280804A1 (CONSEJO SUPERIOR DE INVESTIGACIONES CIENTIFCAS, published 2006).

T1: angiotensin converting enzyme (ACE, EC 3.4.15.1, Sigma)
T1 sequence (P12822 whole entry, species assumed, looked up): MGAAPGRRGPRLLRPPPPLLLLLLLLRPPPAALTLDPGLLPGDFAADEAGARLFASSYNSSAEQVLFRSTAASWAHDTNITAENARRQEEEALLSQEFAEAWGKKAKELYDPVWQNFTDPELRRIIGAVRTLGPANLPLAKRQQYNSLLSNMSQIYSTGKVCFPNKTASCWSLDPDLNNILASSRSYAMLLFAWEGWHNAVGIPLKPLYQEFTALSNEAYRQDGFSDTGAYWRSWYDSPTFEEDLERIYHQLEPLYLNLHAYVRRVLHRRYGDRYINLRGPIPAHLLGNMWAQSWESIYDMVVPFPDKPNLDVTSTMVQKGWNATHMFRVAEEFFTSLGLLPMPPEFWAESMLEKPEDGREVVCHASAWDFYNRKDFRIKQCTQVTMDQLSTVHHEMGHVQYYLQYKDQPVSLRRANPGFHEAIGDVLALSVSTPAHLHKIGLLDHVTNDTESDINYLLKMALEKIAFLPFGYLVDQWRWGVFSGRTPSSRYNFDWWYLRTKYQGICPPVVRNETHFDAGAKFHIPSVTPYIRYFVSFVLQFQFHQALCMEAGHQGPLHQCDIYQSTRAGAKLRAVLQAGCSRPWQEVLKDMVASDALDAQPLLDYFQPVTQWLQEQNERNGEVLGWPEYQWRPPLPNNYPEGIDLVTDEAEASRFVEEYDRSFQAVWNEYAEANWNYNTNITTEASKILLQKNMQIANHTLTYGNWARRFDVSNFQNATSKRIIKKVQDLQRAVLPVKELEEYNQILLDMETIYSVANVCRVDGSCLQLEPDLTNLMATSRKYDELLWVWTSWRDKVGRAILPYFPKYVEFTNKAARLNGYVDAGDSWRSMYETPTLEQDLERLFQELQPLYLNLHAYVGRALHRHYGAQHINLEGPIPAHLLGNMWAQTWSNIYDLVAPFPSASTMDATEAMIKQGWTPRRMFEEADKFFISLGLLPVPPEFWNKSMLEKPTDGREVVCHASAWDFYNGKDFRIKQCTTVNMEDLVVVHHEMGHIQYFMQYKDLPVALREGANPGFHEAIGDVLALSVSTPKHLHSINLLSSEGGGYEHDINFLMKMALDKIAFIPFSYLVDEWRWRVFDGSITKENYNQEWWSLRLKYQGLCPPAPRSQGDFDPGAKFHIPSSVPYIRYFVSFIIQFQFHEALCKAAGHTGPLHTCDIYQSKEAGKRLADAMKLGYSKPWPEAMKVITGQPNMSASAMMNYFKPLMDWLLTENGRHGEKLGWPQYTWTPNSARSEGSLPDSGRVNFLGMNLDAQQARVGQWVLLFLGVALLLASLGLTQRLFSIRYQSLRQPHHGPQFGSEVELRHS


Target: T1, angiotensin converting enzyme (ACE, EC …)
Test: cell-based or functional assay

Row | Binder | ACEI activity, IC50 [µM]
1 | YQIGL [YQIGL (SEQ. ID. No 1), synthetic peptide, ovalbumin 212-216] | 174
2 | SALAM [SALAM (SEQ. ID. No 8), synthetic peptide, ovalbumin 36-40] | 229
3 | ELIN [ELIN, synthetic peptide, ovalbumin 144-147] | > 1000
4 | YRGGLEPINF [YRGGLEPINF, synthetic peptide, ovalbumin 125-134] | > 1000
5 | RADHPFL [RADHPFL (SEQ. ID. No 3), synthetic peptide, ovalbumin 359-365] | 6.2
6 | ESIINF [ESIINF, synthetic peptide, ovalbumin 256-261] | > 1000
7 | YAEERYPIL [YAEERYPIL (SEQ. ID. No 6), synthetic peptide, ovalbumin 106-114] | 4.7
8 | RDILNQ [RDILNQ (SEQ. ID. No 7), synthetic peptide, ovalbumin 84-89] | 436
9 | VLLPDEVSGL [VLLPDEVSGL, synthetic peptide, ovalbumin 243-252] | > 1000
